A short description of this series: yeast display, Sf9 membrane polyspecificity reagent, FACS + sequencing; frameworks hold sequencing errors. The method, boiled down: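 Polyreactivity labels are assigned by the sorting gate from which each nanobody was recovered. The gates were low and high (top ~1%), set on anti-HA fluorescence for expression and streptavidin fluorescence for reagent binding. Before sorting, galactose-induced (36–48 hours) yeast display cells were stained for 1 hour at 4 °C with 10% biotinylated, detergent-solubilized Sf9 membrane reagent.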
For the sequence “QVQLVDSGGGLVQAGGSLRLSCGASGFIIARNAMGGYRHPPGKERELVAAISRNGGRTSYADSVKGRFTISRDTAKNTVYLQMNSLNPEDTAVYYCAKAQGYVTWTGAYAYDYWGQGTQVTVSS”, the “polyreactivity (PSR sort gate)” value was “high polyreactivity”.

Consider “QVQLVESGGGLVQAGGSLRLSCAASGRTFYVYAMGWYRQAPGKERELVATITSRGGRTYYADSVKGRFTISRDNAKNTVYLQMNSLKPEDTAVDYCNAAWWKVSYVRQKYFYWGQGTQVTVSS”, for which the “polyreactivity (PSR sort gate)” value was “high polyreactivity”. As for “QVQLVDSGGGLVQAGATLRLSGAASGRIFGCNAMGWYRQAPGKVRELVAAISNGGSTYYADSVKGRFTISRDNAKNTVYFQMNSLKPEDTAVYYCNAAARIGYARRFYYWGQGTQVTVSS”, the “polyreactivity (PSR sort gate)” value is “high polyreactivity”. Turning to “QVQLVESGGGLVQAGGSLRLSCAASGRTFKWNAMGWYRPAPGKERELVAAISISAGSTYYADSVKGRFTISRDNAKKTVYLQMNSLKPEDTAVYYCNTKYVRFYSRMDSWGQGTQVTVSS”, the “polyreactivity (PSR sort gate)” value is “low polyreactivity”. On to “QVQLVESGGGLVQAGGSLRLSCAASGSTFRQYAMGWYRQAPGKERELVAAISTNGVSTRYADSVKGRFTISRDNAKNTVYLQMNSLKPEDTAVYSCAAGYRKSYTYYRYDYWGQGTQVTVSS”, for which the “polyreactivity (PSR sort gate)” value is on record as “high polyreactivity”.

Take “QVQLVESGGGLVQEGGSLRLSCAASGRPFYNAMGWYRPAPGKERELVAGIRWSGASTYYADSVKGRFTISRDNAKNTVYLQMNSLKPEDTAVYYCAARRHSTRLRLTSDYWGHGTQVTVSS”: the “polyreactivity (PSR sort gate)” value is “high polyreactivity”. As to “QVQLVESGGGLVQAGGSLRLSCAASGSTFSLYAMGWYRQSPGKETELVASITWGGGSTYADSVKRLFTISRDNAKNTVYLQMNSLKPEDPAVYYCARKYRYRVLYDFAYDHWGQGTEVTVSS”, the “polyreactivity (PSR sort gate)” value is given as “low polyreactivity”. In the case of “QVQLVESGGGLVQAGGSLRLICAASGFIFGGYGMGWYRQAPGKERELVAVITASGGSTYYADSVKGRFTISRDNAKNTVYLQMNSLKPEDTAVYYCAARVGRYGYSQYYYWGQGTQVTVSS”, the “polyreactivity (PSR sort gate)” value was “high polyreactivity”. For “QVQLVESGGCLVQAGGSLRLSCAASGFIFCGNARGGYIPAPGKERELVAVITRSGGSTYADSVKGRFTISRDNAKNTVYLQMNSLKPEVTAVYYCAADQQTWWQYSLINEYDYWGQGTQVTVSS” the value was “low polyreactivity”. On to “QVQLVESGGGLVQAGGSLRLSCAASGSTFYAYAMGWYRQAPGKERELVASITYSGVSTYYADSVKGRFTISRDNAKNTVYLQMNSLKPEDTAVYYCATDYSHITYSHYRWWYNEYEYWGQGTQVTVSS”, for which the “polyreactivity (PSR sort gate)” value is reported as “low polyreactivity”. With “QVQHVESGRGLVQAGGSLRLSCAASGITFNQYAMGWYRQAPGKERELVAGISYSGGSTYYADSVKGRFTISRDNAKNTVYFQMISLKPEDTAVYYCAKRSPFTLDYWGQGTQVTVSS”, the “polyreactivity (PSR sort gate)” value is “high polyreactivity”. For “QVQLVESGGGLVQAGGSLRLSCAASGRTFIANAMGWYRQAPGKERELVAVITLNGGSTYYADSVKGRFTISRDNAKNTVYLQMNSLKPEDTAVYYCAAGRYYKLRATHGYWGQGTQVTVSS”, the “polyreactivity (PSR sort gate)” value is reported as “low polyreactivity”. Turning to “QVQLVESGGGLVQAGGSLRLSCAASGNTFPSYAMGWYRQAPGKERQLVAAITSGGRTYYADSVKGRFTISRDNAKNTVYLQMNSLKPEDTAVYYCAADWVVRYPWYRYYYWGPGTQVTVSS”, the “polyreactivity (PSR sort gate)” value is “high polyreactivity”. As for “QVQLVESGGGLVQAGGSLRLSCAASGRTLWSYTMGWYRQAPGKERELVARITIGGSTNYADSVKGRFTISRDNAKNTVYLQMNSLKPEDTAVYYCNARASYSYGSYLSKSYGFDYWGQGTQVTVSS”, the “polyreactivity (PSR sort gate)” value is “high polyreactivity”.

Regarding “QVQLVESGGGLVQAGGSLRLSCAASGFIFRVNAMGWYRQAPGKERELVAAISSSGTSTYYADSVKGRFTISRDNAKNTVYLQMNSLKPEDTAVYYCAARLFYRSAYGYWGQGTQVTVSS”, the “polyreactivity (PSR sort gate)” value was “high polyreactivity”. On to “QVQLVESGGGLVQAGGSLRLSCAASGRTFLRYAMGWYRQAPGKERELVAAITYGGRTNYADSVKGRFTISRDNAKNTVYLQMNSLKPEDTAVYYCAADRTYYYGMRVDYWGQGTQVTVSS”, for which the “polyreactivity (PSR sort gate)” value is given as “high polyreactivity”. With “QVQLVESGGGLVQAGGSLRISCAASGITFSYYAMGWYIQAPGKERELVAAINSGGGSTYYADSVKGRFTISRDNAKNTVYLQMNRLKPEDTAVYYFAARYRSRYDYYYDRDYWGQGTQVTVSS” the entry was “low polyreactivity”; with “QVQLVESGGGLVQAGGSLSLSCAASASTFRYYTMGWYRQAPGKERELVAAISWTGGGTYYADSVKGRFTISRDNAKNTVYLQMNSLKPEDTAVYYCAASYYYELFRFDYWGQGTQVTVSS”, “high polyreactivity”.

With “QVQLVESGGGLVQAGGSLRLTCAASGIIFYGYAMGCYRQAPGKERELVADISFSGGRTYYSDSVKGRFTISRDNAKNTVYLQMNRLKQEDTAVYYCAKRRFYRTSQYVKYDYWGQGTQVTVSS”, the “polyreactivity (PSR sort gate)” value is given as “low polyreactivity”. For “QVQLVESGGGLVQAGGSLRVSCAASGYIFTPYAMGWYRQAPGKERELVAAISSSTVRTFYADSVKGRFTISRDNAKNTVYLQMNSLKPEDTAVYYCAARGYWGQGTQVTVSS” the value was “high polyreactivity”.

Regarding “QVQLVESGGGLVQAGGSLRLSCAASGSTFNRNTMGWYRQAPGKERELVAAITSSGGRTYYADSVKGRFTISRDNAKNTVYLQVNSLKPEDTAVYYCANVIRVLIAGRFDSWGQGTHVTVSS”, the “polyreactivity (PSR sort gate)” value is listed as “high polyreactivity”.

Regarding “QVQLVESGGGLVQAGGSLRLSCDASGSTFRANAMGWYRQAPGKERELVAAISWSGGRTYYADSVKGRFTISRDNAKNTVYLQMNSLKPEYTAVYYCAAPKLTSYDSWGQGTQVTVSS”, the “polyreactivity (PSR sort gate)” value was “high polyreactivity”. With “QVQLVESGGRLVQAGGRLRLSCAASGRIFRYYTLGWYRQAPGKERELVAAITRRGGITNYADSVKGRFTISRDNAKNTVYLQMNSLKPEDTAVYYCAAKYVSQGYDYWGQGTQVTVSS”, the “polyreactivity (PSR sort gate)” value is recorded as “high polyreactivity”.

Consider “QVQLVESGGGLVQAGGSLRLSCAASGRTFYNAMGWYRQAPVKEMELVAAITTGGGTKYADSVKGRFTISRDNAKNTFYLQMNSLKPEDTAVYYCNTDEWYHFYHGAHKYDYWGQGTQVTLSS”, for which the “polyreactivity (PSR sort gate)” value is given as “low polyreactivity”.

As to “QVQLVESGGGLVQAGGSLRLSCAASGRIFARYAMGWYRQAPGKERELVAAIRTSGGITYYADSVKWRFTISRDNAKNTVYLQMNSLKPEDTEVYYCAADFYSYSSVKYDYWGQGTQVTVSS”, the “polyreactivity (PSR sort gate)” value is on record as “low polyreactivity”. With “QVQLVESGGGLVQAGGSLRLSCAASGITFVHNVMGWYRQAPGKERELVAAINSGGRTYYADSVKGRFTISRDNAKNTVYLQMNSLKPEDTAVYYCAALGDKRGGGNYWGQGTQVTVSS” the entry was “high polyreactivity”; with “QVQLVESGGGLVQAGGSLRLSCAASGFIFRRYAMGWYRQAPGKERELVAAISYNVVSTYYADSVKGRFTISRDNAKNTVYLQLNSLKPEVTAVYYCNTASSYRSFRYNYWGQGTQVTVSS”, “high polyreactivity”; with “QVQLVESGGGLVQAGGSLRLSCAASGFIFSSYAMGSYRQAPGKERELVAAISWSGGSTYYADSVKGRFTISRDNAKNTVYLQMKSLKPEDAAVYYCASVTRIFDYWGQGTQVTVSS”, “high polyreactivity”. In the case of “QVQLVESGGGLVQSGGSLRLSCAASGRTFGYNAMGWYRQAPGKERELVAAISRSGDSTYYADSVKGRFTISRDNAKNTVYLQMNSLNPEVTAVFYCATRYVTTGYDYWGQGTQVTVSS”, the “polyreactivity (PSR sort gate)” value is on record as “low polyreactivity”. As for “QVQLVESGGGLVQAGGSLRLSCAASGSIFFYYTMGWYRQAPGKERELVAAISVGGSTYYADSVKGRFTISRDNAKNTVYLQMNSLKPEDTAVYYCNAVPAKGYVTVVRYYYWGQGTQVTVSS”, the “polyreactivity (PSR sort gate)” value is recorded as “low polyreactivity”. On to “QVQLVESGGGLVQAGGSLRLSCAASGSTLWYYAMGWYRQAPGKERELVADITSSGNTNYADSVKGRFTISRDNAKNTVYLQMNSLKPEDTAVYYCAADSANYQWYLSWQKDDYWGQGTQVTVSS”, for which the “polyreactivity (PSR sort gate)” value is “low polyreactivity”. With “QVQLVESGGGLVQAGGSLRLSCAASGIIFPYNVMGWYRQAPGKERELVAAITRGAASTYYADSVKGRFTISRDNAKNTVYLQMNSLKPEDTAVYYCNADGTWRTYNYWGQGTQVTVSS”, the “polyreactivity (PSR sort gate)” value is given as “high polyreactivity”. For “QVQLQESGGGLVKAGGSLRLSCAASGNISNHNDMGWYRQAPGKEREFVAGITAGGITNYADSVKGRFTISRDNAKNTGYLQMNSLKPEDTAVYYCAAYPDYAKSYGYWGQGTQATVSS” the value was “low polyreactivity”; for “QVQLVESGGGLVQAGGSLRLSCAASGRIFVGYAMGRNIQAPGKERELVAAISRDGDNTFYADSVKGRFTISRDNAKNTVYLQMNSLKPEDTAVYYCAVDYWVWSCSAYAYDYYWGQVTQVTVSS”, “low polyreactivity”; for “QVQLVESGGGLVQAGGSLRLSSAASGFTFSGYAMGWYRQAPVKERELVAAISSSGASTYYADSVKGRFTISRDNAKNTVYLQIHSLKPEDTAVYYCAAGTRLSDGYYWGQGTQVTVSS”, “high polyreactivity”. As for “QLQLVESGGGLVQAGGSLRLSCAASGGIFPNYVMGWYRKAPGKERELVAGITSGGNTNYADSVKGRFTISRDNAKNTVYLQMNSLKPEDTAVYYCAADGYRYSVYLIRNPMDYWGQGTQVTVSS”, the “polyreactivity (PSR sort gate)” value is recorded as “low polyreactivity”. With “QVQLVESGGGLVQAGGSLRLSCAASGSIFDYYTMGWYRQAPGKERELVASITRDGTSTYYADSVKGRFTISRDNAKNTVYLQMNSLKPEDTAVYYCAAERYGFTYSFYYWGQGTQVTVSS” the entry was “low polyreactivity”; with “QVQLVESGGVLVQAGGSLRLSCAASGRTFRYYAMGWYRQAPGKERELVAAITVTVTSTFYADSVKGRFTISRDNAKNTVYLQMNSLKPEDTAVYYCAKVDRQSPGQYYYWGQGTQVTVSS”, “low polyreactivity”. With “QVQLVESGGGLVQAGGSLRLSCAASGFIFYRYAMGWYRQAPGKEREFVAAITRSAGGTYYADSVKGRFTISRDNEKNTVYLQMNSLKPEDTAVYYCAAVYRSGSRYYLGWYNYWGQGTQVTVSS” the entry was “high polyreactivity”.

Consider “QVQLVESGGGLVQAGGSLRLSCASSGRTFRSYAMGWYRQAPGKERELVAAITYSGGNTYYADSVKGRFTISRDNAKNTVYLQMNSLKPEDTAVYYCAYLKTPRGYDYWGQGTQVTVSS”, for which the “polyreactivity (PSR sort gate)” value is “high polyreactivity”.

Regarding “QVQLVESGGGLVQAGGSLRLSCAASGRNLHYYSMGWYRQAPGKEWELVAAITWSGGSTYYADSVNGRFTISRDNAKNTVYLQMNSLKPVDTSVYYCAARGTDWGQGTQVTVSS”, the “polyreactivity (PSR sort gate)” value is “low polyreactivity”.
